Experimental findings from paper PMC4651853 (DNA repair, 2015) are described below.

The labels stand for the following.
B1: his-MutL (natural protein, E. coli, UniProt P23367 1-615, looked up)
chain: MPIQVLPPQLANQIAAGEVVERPASVVKELVENSLDAGATRIDIDIERGGAKLIRIRDNGCGIKKDELALALARHATSKIASLDDLEAIISLGFRGEALASISSVSRLTLTSRTAEQQEAWQAYAEGRDMNVTVKPAAHPVGTTLEVLDLFYNTPARRKFLRTEKTEFNHIDEIIRRIALARFDVTINLSHNGKIVRQYRAVPEGGQKERRLGAICGTAFLEQALAIEWQHGDLTLRGWVADPNHTTPALAEIQYCYVNGRMMRDRLINHAIRQACEDKLGADQQPAFVLYLEIDPHQVDVNVHPAKHEVRFHQSRLVHDFIYQGVLSVLQQQLETPLPLDDEPQPAPRSIPENRVAAGRNHFAEPAAREPVAPRYTPAPASGSRPAAPWPNAQPGYQKQQGEVYRQLLQTPAPMQKLKAPEPQEPALAANSQSFGRVLTIVHSDCALLERDGNISLLSLPVAERWLRQAQLTPGEAPVCAQPLLIPLRLKVSAEEKSALEKAQSALAELGIDFQSDAQHVTIRAVPLPLRQQNLQILIPELIGYLAKQSVFEPGNIAQWIARNLMSEHAQWSMAQAITLLADVERLCPQLVKTPPGGLLQSVDLHPAIKALKDE
B2: MutS (natural protein, E. coli, UniProt P23909 1-853, looked up)
chain: MSAIENFDAHTPMMQQYLRLKAQHPEILLFYRMGDFYELFYDDAKRASQLLDISLTKRGASAGEPIPMAGIPYHAVENYLAKLVNQGESVAICEQIGDPATSKGPVERKVVRIVTPGTISDEALLQERQDNLLAAIWQDSKGFGYATLDISSGRFRLSEPADRETMAAELQRTNPAELLYAEDFAEMSLIEGRRGLRRRPLWEFEIDTARQQLNLQFGTRDLVGFGVENAPRGLCAAGCLLQYAKDTQRTTLPHIRSITMEREQDSIIMDAATRRNLEITQNLAGGAENTLASVLDCTVTPMGSRMLKRWLHMPVRDTRVLLERQQTIGALQDFTAGLQPVLRQVGDLERILARLALRTARPRDLARMRHAFQQLPELRAQLETVDSAPVQALREKMGEFAELRDLLERAIIDTPPVLVRDGGVIASGYNEELDEWRALADGATDYLERLEVRERERTGLDTLKVGFNAVHGYYIQISRGQSHLAPINYMRRQTLKNAERYIIPELKEYEDKVLTSKGKALALEKQLYEELFDLLLPHLEALQQSASALAELDVLVNLAERAYTLNYTCPTFIDKPGIRITEGRHPVVEQVLNEPFIANPLNLSPQRRMLIITGPNMGGKSTYMRQTALIALMAYIGSYVPAQKVEIGPIDRIFTRVGAADDLASGRSTFMVEMTETANILHNATEYSLVLMDEIGRGTSTYDGLSLAWACAENLANKIKALTLFATHYFELTQLPEKMEGVANVHLDALEHGDTIAFMHSVQDGAASKSYGLAVAALAGVPKEVIKRARQKLRELESISPNAAATQVDGTQMSLLSVPEETSPAVEALENLDPDSLTPRQALEWIYRLKSLV

For the data set “MutS”, the target named is B2. Nature of the data set: atomic force microscopy.
The data set “atomic force microscopy” concerns the molecule itself. Nature of the data set: atomic force microscopy.

Several values for one entry are separate records, joined by “and”; a condition that tells them apart may be missing. Equal entries are not always repeated.

In the case of B1, in the data set with MutS, the binding result is recorded as “binds”.
On to B2, for which the “stoichiometry N” value in “atomic force microscopy” is 2 and 4.

One may read the stoichiometry N as a count of units in the complex or per binding partner.
